The labels stand for the following.
B1: Hairpin Ribozyme (parent)
chain: GUCCUCUUUCACGUGCGCGUGAAAGAGAGAAGUGAACCAGAGAAACACACGUUGUGGUAUAUUACCUGGUA

The data set covers variants of B1. The experiment in a line: self-cleavage, relative activity (ratio to wild type); higher = more cleavage; co-transcriptional.
With A28U A61G, the self-cleavage worked out at 0.0909.

On to G27A G42A, for which the self-cleavage came out at 0.153. The same measure for C65G A71C: 0.697; for G51C U58C: 0.905; for G57U U60A: 0.114. The figure for C48A G57A is 0.121; for G42C A45U it is 0.124; for C6G G27A it is 0.135. The figure for A22U U67G is 0.295. In the case of C6U C46U, the self-cleavage is 0.176.

For the variant C12G U20C, the self-cleavage is 1.01. The figure for A43U G69A is 0.119; for U9A A36U it is 0.283. Consider C48G U58C, for which the self-cleavage was found to be 0.143. For C3A A49G, the self-cleavage is 0.426. As to A23G G51U, the self-cleavage was found to be 1.01.

For the variant A30C U58G, the self-cleavage is 0.103. The same measure for A31C C50G: 0.0635; for U7G C18U: 1.07; for A22U A28C: 0.561. The same measure for U14A U20G: 0.663. The same measure for A23C A45C: 0.0875; for A28G A64C: 0.165. On to U14C G32U, for which the self-cleavage was 0.138. The figure for C6A G42A is 0.161; for U53A U67C it is 0.279. The same measure for G15U U33C: 0.178. Consider G68U, for which the self-cleavage is 0.254. The same measure for G17U G42A: 0.152. As for G32A C65G, the self-cleavage worked out at 0.102. In the case of G17U C48A, the self-cleavage came out at 0.106. On to A24C G68U, for which the self-cleavage was 0.223. The figure for G21C C48G is 0.184; for A61C G68A it is 0.116; for C6U C50A it is 0.24. A11C G54A: the self-cleavage was 0.508. The figure for U8G A30U is 0.186.

Consider G15A G51U, for which the self-cleavage was found to be 0.82. The figure for A23G A43G is 0.0591; for A24C A26U it is 0.463. The same measure for A28C G32U: 0.0817. For the variant G25A G56C, the self-cleavage was 0.117.

Turning to C6U A45U, the self-cleavage came out at 0.194. The same measure for C10U G25C: 0.487; for C12A U53C: 0.939.

Take A28U A71G: the self-cleavage is 0.673. Consider A36G, for which the self-cleavage came out at 1.03. Take U2G G54A: the self-cleavage was 0.114. With C6G U55C, the self-cleavage is 0.156. The figure for A44U A47C is 0.0912; for C6U A64U it is 0.16. For the variant U53C G57C, the self-cleavage was 0.244. The same measure for A35U U67G: 0.161; for U53G G69C: 0.316. The figure for G13A A22C is 0.607. Turning to G17U U70A, the self-cleavage came to 0.95. The same measure for U53A A71U: 0.706; for G21C U60C: 0.851. U33A C37A: the self-cleavage stood at 0.112.

Turning to A35C U60G, the self-cleavage came out at 0.649. The same measure for U8A A41U: 0.843; for A28U G54U: 0.3; for G19U A61U: 0.183. The same measure for U14C U63G: 0.0837; for A28G G68C: 0.115; for A31C G54A: 0.152. With G1A U8C, the self-cleavage is 0.265. The figure for C6G A71C is 0.855. The same measure for C37U G54U: 0.443; for A30C G56U: 0.157; for A26C G57C: 0.0672. The same measure for U5C U58C: 0.496; for G51A U67G: 0.628; for A28G C48G: 0.0684. For the variant G68C G69C, the self-cleavage was determined as 0.206. Take G1C C18G: the self-cleavage was determined as 0.307. C16A U53C: the self-cleavage is 0.753. As to C46G U53A, the self-cleavage turned out to be 0.0595. U7A G25C: the self-cleavage was 0.402. The figure for C3A A23U is 0.619.

With G1U C12A, the self-cleavage came to 0.0913.

As for G13U G17U, the self-cleavage came to 0.712. The figure for A39U A61G is 0.0916; for C48U G54A it is 0.163; for G13A A49U it is 0.18.

As to U20A C65G, the self-cleavage was 0.182. For the variant U8C G13C, the self-cleavage was 0.834.

In the case of A44C A64G, the self-cleavage amounted to 0.141.

U5G U60C: the self-cleavage came to 0.593.

In the case of A49U G69C, the self-cleavage was found to be 0.139.

Turning to C10U U52C, the self-cleavage is 0.949.

Turning to U7C A36C, the self-cleavage is 0.679.

Regarding U33C A61U, the self-cleavage was determined as 0.163. With C18A C66A, the self-cleavage worked out at 0.258. The figure for A31U U70A is 0.0877.

In the case of U5G G42U, the self-cleavage was 0.198. For A47G C65G, the self-cleavage worked out at 0.112. For G29U U33G, the self-cleavage is 0.0639. The figure for G19C A71U is 0.722. The figure for G15A G42A is 0.15; for U20C G21U it is 0.652. The same measure for C3A C37G: 0.32; for U9G C50U: 0.393. As to U7C A39U, the self-cleavage was found to be 0.465. Turning to U14A A36C, the self-cleavage is 0.502. Consider C12G C37A, for which the self-cleavage is 0.159.

As for A28U A49U, the self-cleavage turned out to be 0.111. In the case of C3G G32U, the self-cleavage is 0.141. Consider G57A, for which the self-cleavage was 0.183.

Consider A45G U58A, for which the self-cleavage is 0.174. The figure for A26C G27U is 0.0629; for C46U U70C it is 0.161; for A31G A39C it is 0.253. The figure for A30G U70G is 0.262; for G42A U60A it is 0.0887.

Turning to U62G U67C, the self-cleavage is 0.133. The figure for G54A A64C is 0.152; for U58A G68C it is 0.194. For the variant C16A G29U, the self-cleavage was determined as 0.128. With C12U A35C, the self-cleavage is 0.975. The same measure for A31G U55A: 0.105; for A44G G57A: 0.123.

Take A28U U63C: the self-cleavage worked out at 0.113. The figure for C46A G51A is 0.215; for U2C U67C it is 0.0838; for C4G C65U it is 0.224. The same measure for C12U A47U: 0.194; for G21C C66A: 0.27. G40C U63G: the self-cleavage was 0.135. Consider U20G G27C, for which the self-cleavage was 0.165. For G51C G57A, the self-cleavage worked out at 0.147. The figure for A28C A31U is 0.107; for C18G A64C it is 0.158.

Take A28U G51C: the self-cleavage is 0.49. The same measure for G15U A39G: 0.245; for C3U A24U: 0.491; for C6U A11G: 0.816.

Regarding A45G C48A, the self-cleavage turned out to be 0.109. For the variant C16A C38A, the self-cleavage amounted to 0.203.

On to U52G U58G, for which the self-cleavage was 0.498. The figure for G32C G56C is 0.149; for C3G G40A it is 0.0852; for G15A C37G it is 0.312.

For G15A C37U, the self-cleavage came out at 0.699. For C16U U67C, the self-cleavage came to 0.283.

With G19C G42U, the self-cleavage was determined as 0.24. The same measure for C18A U33C: 0.132; for G17U A36U: 0.483.

Take A39G C66A: the self-cleavage was 0.101. As for A26G A35U, the self-cleavage is 0.523. Regarding A43U U52A, the self-cleavage stood at 0.229.

For the variant C16U U70A, the self-cleavage was found to be 1.03. As for G17C G34A, the self-cleavage stood at 1.02. The same measure for A30G G68U: 0.169; for U67A U70C: 0.247; for U5A G17A: 0.435. In the case of G1C U55G, the self-cleavage came out at 0.132. The same measure for U2G C65U: 0.163; for G42C U63G: 0.238.

In the case of C4A C37A, the self-cleavage stood at 0.159. The figure for C50G C65G is 0.161; for C18G C37U it is 0.493.

In the case of A22G C37A, the self-cleavage was found to be 0.312.

For the variant C4G A61C, the self-cleavage was 0.164. For the variant A39C U52A, the self-cleavage was 0.543. The same measure for C16G A43C: 0.156; for G19A G68C: 0.194.

The values are drawn from the RNAGym collection of RNA variant scans (doi:10.7554/elife.80360).
